{"source": "patent WO2021084104A1", "about": "(dated 2021)", "key": {"[1]": {"target": "T1, full-length CD40 on cells (transfected CHO-S cells, Raji B-cell line, primary B cells) (human, UniProt P25942 21-277)", "T1 construct": "whole, on cells; also called target expressing cells", "T1 sequence (P25942 21-277)": "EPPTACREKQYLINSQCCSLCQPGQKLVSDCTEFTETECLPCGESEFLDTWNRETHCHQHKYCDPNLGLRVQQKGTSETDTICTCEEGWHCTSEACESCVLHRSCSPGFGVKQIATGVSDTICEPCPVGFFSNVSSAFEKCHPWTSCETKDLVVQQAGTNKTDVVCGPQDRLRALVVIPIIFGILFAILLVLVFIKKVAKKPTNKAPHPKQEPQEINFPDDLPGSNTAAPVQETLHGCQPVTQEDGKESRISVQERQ", "assay": "flow cytometry on transfected and endogenously expressing cells (Fig. 6B)"}, "[2]": {"target": "T2, full-length 4-1BB on cells (transfected CHO-S cells, in vitro activated CD4 positive T-cells) (human, UniProt Q07011 24-255)", "T2 construct": "whole, on cells; also called target expressing cells", "T2 sequence (Q07011 24-255)": "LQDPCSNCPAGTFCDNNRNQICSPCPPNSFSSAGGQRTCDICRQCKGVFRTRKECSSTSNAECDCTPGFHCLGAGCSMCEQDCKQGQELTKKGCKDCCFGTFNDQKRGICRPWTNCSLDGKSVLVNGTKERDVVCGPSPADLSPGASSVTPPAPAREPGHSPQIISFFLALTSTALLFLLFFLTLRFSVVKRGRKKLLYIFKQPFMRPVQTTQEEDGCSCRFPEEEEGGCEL", "assay": "flow cytometry on transfected and endogenously expressing cells (Fig. 6B)"}, "[3]": {"target": "T1, full-length CD40 on cells (transfected …)", "assay": "flow cytometry on transfected and endogenously expressing cells (Fig. 6A)"}, "[4]": {"target": "T3, full-length OX40 on cells (transfected CHO-S cells, in vitro activated CD4 positive T-cells) (human, UniProt P43489 29-277)", "T3 construct": "whole, on cells; also called 0X40; target expressing cells", "T3 sequence (looked up)": "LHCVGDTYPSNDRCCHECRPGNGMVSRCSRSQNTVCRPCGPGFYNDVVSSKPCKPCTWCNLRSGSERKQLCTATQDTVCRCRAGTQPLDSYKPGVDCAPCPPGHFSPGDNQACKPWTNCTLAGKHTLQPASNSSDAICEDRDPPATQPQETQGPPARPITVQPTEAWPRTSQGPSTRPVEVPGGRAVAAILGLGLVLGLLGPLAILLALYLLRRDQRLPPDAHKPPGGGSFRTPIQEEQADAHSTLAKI", "assay": "flow cytometry on transfected and endogenously expressing cells (Fig. 6A)"}, "[5]": {"target": "T3, full-length OX40 on cells (transfected …)", "assay": "flow cytometry on transfected and endogenously expressing cells (Fig. 6C)"}, "[6]": {"target": "T2, full-length 4-1BB on cells (transfected …)", "assay": "flow cytometry on transfected and endogenously expressing cells (Fig. 6C)"}, "[7]": {"target": "T1, full-length CD40 on cells (transfected …)", "assay": "flow cytometry on overexpressing or endogenously expressing cells (Fig. 7)"}, "[8]": {"target": "T3, full-length OX40 on cells (transfected …)", "assay": "flow cytometry on overexpressing or endogenously expressing cells (Fig. 7)"}}}
{"binder": "tetra VH IgG #4 (VH-CH1=41BB #4, VH-CL=CD40 #3) (bispecific antibody, V domains shown, not shown: a dimerising Fc or GST, Human IgG1 format with a VH in place of the VL; no VL domain; also called tetra VH lgG#4; anti-41 BB/CD40 tetra-VH IgG) V domain 1: EVQLLESGGGLVQPGGSLRLSCAASGFTFGDYAMSWFRQAPGKGLEWVAVLSYDGSNTDYADSVKGRFTISRDNSKNTLYLQMNSLRAEDTAVYYCAKGPLILAAGNYWGQGTLVTVSS V domain 2: EVQLLESGGGLVQPGGSLRLSCAASGFTFSSYAMSWVRQAPGKGLEWVSRLNSDGITATYADSVKGRFTISRDNSKNTLYLQMNSLRAEDTAVYYCARGKIPAIDHWGQGTLVTVSS", "values": [{"measurement": "binding result", "setting": "[1]", "value": "binds"}, {"measurement": "binding result", "setting": "[2]", "value": "binds"}]}
{"binder": "tetra VH IgG #2 (VH-CH1=OX40 #2, VH-CL=CD40 #5) (bispecific antibody, V domains shown, not shown: a dimerising Fc or GST, Human IgG1 format with a VH in place of the VL; no VL domain; also called anti-CD40/OX40 tetra-VH IgG; OX40/CD40 bispecific antibody) V domain 1: EVQLLESGGGLVQPGGSLRLSCAASGFTFSSYAMSWVRQAPGKGLEWVSGVSGGGGSTYYADSVRGRFTISRDNSKNTLYLQMNSLRAEDTAVYYCARGWDDINVWGQGTLVTVSS V domain 2: EVQLLESGGGLVQPGGSLRLSCAASGFTFSSYTMDWVRQAPGKGLEWVSSISESGDTTDYADSVKGRFTISRDNSKNTLYLQMNSLRAEDTAVYYCARCSGGSCYSVNWGQGTLVTVSS", "values": [{"measurement": "binding result", "setting": "[3]", "value": "binds"}, {"measurement": "binding result", "setting": "[4]", "value": "binds"}]}
{"binder": "tetra VH IgG #20 (VH-CH1=41BB #4, VH-CL=OX40 #2) (bispecific antibody, V domains shown, not shown: a dimerising Fc or GST, Human IgG1 format with a VH in place of the VL; no VL domain; also called anti 0X40/41 BB tetra-VH IgG) V domain 1: EVQLLESGGGLVQPGGSLRLSCAASGFTFGDYAMSWFRQAPGKGLEWVAVLSYDGSNTDYADSVKGRFTISRDNSKNTLYLQMNSLRAEDTAVYYCAKGPLILAAGNYWGQGTLVTVSS V domain 2: EVQLLESGGGLVQPGGSLRLSCAASGFTFSSYAMSWVRQAPGKGLEWVSGVSGGGGSTYYADSVRGRFTISRDNSKNTLYLQMNSLRAEDTAVYYCARGWDDINVWGQGTLVTVSS", "values": [{"measurement": "binding result", "setting": "[5]", "value": "binds"}, {"measurement": "binding result", "setting": "[6]", "value": "binds"}]}
{"binder": "tetra VH IgG #5 (VH-CH1=CD40 #5, VH-CL=OX40 #2) (bispecific antibody, V domains shown, not shown: a dimerising Fc or GST, Human IgG1 format with a VH in place of the VL; no VL domain; also called tetra VH lgG#5) V domain 1: EVQLLESGGGLVQPGGSLRLSCAASGFTFSSYTMDWVRQAPGKGLEWVSSISESGDTTDYADSVKGRFTISRDNSKNTLYLQMNSLRAEDTAVYYCARCSGGSCYSVNWGQGTLVTVSS V domain 2: EVQLLESGGGLVQPGGSLRLSCAASGFTFSSYAMSWVRQAPGKGLEWVSGVSGGGGSTYYADSVRGRFTISRDNSKNTLYLQMNSLRAEDTAVYYCARGWDDINVWGQGTLVTVSS", "values": [{"measurement": "binding result", "setting": "[7]", "value": "binds"}, {"measurement": "binding result", "setting": "[8]", "value": "binds"}]}
